These results are taken from patent US20130116201, “USE OF PEPTIDES AS TRANSPORTERS […] FOR THE INTERNALIZATION OF MOLECULES OF […] INTO TARGET CELLS” (UNIVERSITE JOSEPH FOURIER, published 2013).

The target in one data set is ZEBRA full-length (Z-FL) (Epstein-Barr virus, UniProt P03206 P03206:1-245). As to the kind of experiment: EMSA; poly(dI-dC), 1 mM DTT, 4 C. To be noted: tags: N-terminal His6 (pET15b); chain copies: 2; label: biotin. In general terms: In EMSA bound probe runs differently from free probe, usually more slowly.
ZEBRA full-length (Z-FL), sequence (P03206 whole entry, the tested form may be a part, one chain of several): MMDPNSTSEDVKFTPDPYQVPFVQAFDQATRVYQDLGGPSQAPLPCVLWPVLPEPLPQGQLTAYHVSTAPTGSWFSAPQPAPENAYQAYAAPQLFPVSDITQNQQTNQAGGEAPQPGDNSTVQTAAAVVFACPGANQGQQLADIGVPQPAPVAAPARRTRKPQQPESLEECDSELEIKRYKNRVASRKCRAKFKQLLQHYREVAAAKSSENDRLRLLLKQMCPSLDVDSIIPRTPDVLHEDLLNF
A further data set concerns the target ZEBRA Z8 (Epstein-Barr virus, UniProt P03206 P03206:195-245). As to the kind of experiment: EMSA; dimerization domain without DNA-binding domain. The following applies: tags: N-terminal His6 (pET15b); label: biotin.
The next data set addresses ZEBRA Z2 (Epstein-Barr virus, UniProt P03206 P03206:1-170). The data set can be described thus: EMSA; neither DIM nor DB domain. The following applies: tags: N-terminal His6 (pET15b); label: biotin.
A further data set deals with ZEBRA Z3 (Epstein-Barr virus, UniProt P03206 P03206:1-140). As to the kind of experiment: EMSA; neither DIM nor DB domain. The following applies: tags: N-terminal His6 (pET15b); label: biotin.
ZEBRA Z3, sequence (P03206 1-140, one chain of several): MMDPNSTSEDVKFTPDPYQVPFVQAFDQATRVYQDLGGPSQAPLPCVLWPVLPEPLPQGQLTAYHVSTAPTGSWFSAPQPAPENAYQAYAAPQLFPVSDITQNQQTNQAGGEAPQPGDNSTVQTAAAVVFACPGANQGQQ
The target of the next data set is T1, ZEBRA Z7 (Epstein-Barr virus, UniProt P03206 P03206:170-195).
T1 chain: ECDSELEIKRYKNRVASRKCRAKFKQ
The data set can be described thus: EMSA; no dimerization domain. The following applies: tags: N-terminal His6 (pET15b); label: biotin.

In another data set the target is ZEBRA Z5 (Epstein-Barr virus, UniProt P03206 P03206:140-195). The data set can be described thus: EMSA; no dimerization domain. The following applies: tags: N-terminal His6 (pET15b); label: biotin.
Another data set has as its target ZEBRA Z4 (Epstein-Barr virus, UniProt P03206 SEQ:1-105). The data set can be described thus: EMSA; efficiency almost equal to full-length ZEBRA; poly(dI-dC), 4 C. The following applies: tags: N-terminal His6 (pET15b); chain copies: 2; label: biotin.
A further data set deals with ZEBRA Z6 (Epstein-Barr virus, UniProt P03206 SEQ:1-75). The data set is described as above. The following applies: tags: N-terminal His6 (pET15b); chain copies: 2; label: biotin.
ZEBRA Z6, sequence (P03206 171-245): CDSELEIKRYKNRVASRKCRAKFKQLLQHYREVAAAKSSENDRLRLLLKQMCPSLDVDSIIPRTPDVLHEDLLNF

ZEBRA Z8, sequence (P03206 195-245, one chain of several): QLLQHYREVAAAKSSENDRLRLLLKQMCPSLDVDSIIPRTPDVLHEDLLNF
ZEBRA Z2, sequence (P03206 1-170, one chain of several): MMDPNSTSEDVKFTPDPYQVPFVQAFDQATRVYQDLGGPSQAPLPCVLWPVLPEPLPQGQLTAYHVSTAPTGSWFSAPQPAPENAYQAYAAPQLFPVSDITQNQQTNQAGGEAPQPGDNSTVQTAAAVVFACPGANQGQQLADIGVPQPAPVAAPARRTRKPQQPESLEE
ZEBRA Z4, sequence (P03206 141-245): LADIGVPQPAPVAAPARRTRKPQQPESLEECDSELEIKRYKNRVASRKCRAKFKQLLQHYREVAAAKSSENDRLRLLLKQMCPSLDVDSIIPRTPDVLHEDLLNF

B1: AP-1 probe (dsDNA)
DNA 1: AGCACTGACTCATGAAGT
DNA 2: TACTTCATGAGTCAGTGCT
As for B1, the binding result with ZEBRA full-length (Z-FL) is listed as “binds”; with ZEBRA Z8, “no binding”; with ZEBRA Z2 it was “no binding”; in the data set with ZEBRA Z3, “no binding”; with ZEBRA Z7, “no binding”; with ZEBRA Z5, “no binding”. Further, the binding result in the data set with ZEBRA Z4 and in the data set with ZEBRA Z6 was “binds” in each case.
